Series [1] deals with T1, Flag-RIG-I (Homo sapiens, UniProt O95786 O95786:1-925).
T1 sequence: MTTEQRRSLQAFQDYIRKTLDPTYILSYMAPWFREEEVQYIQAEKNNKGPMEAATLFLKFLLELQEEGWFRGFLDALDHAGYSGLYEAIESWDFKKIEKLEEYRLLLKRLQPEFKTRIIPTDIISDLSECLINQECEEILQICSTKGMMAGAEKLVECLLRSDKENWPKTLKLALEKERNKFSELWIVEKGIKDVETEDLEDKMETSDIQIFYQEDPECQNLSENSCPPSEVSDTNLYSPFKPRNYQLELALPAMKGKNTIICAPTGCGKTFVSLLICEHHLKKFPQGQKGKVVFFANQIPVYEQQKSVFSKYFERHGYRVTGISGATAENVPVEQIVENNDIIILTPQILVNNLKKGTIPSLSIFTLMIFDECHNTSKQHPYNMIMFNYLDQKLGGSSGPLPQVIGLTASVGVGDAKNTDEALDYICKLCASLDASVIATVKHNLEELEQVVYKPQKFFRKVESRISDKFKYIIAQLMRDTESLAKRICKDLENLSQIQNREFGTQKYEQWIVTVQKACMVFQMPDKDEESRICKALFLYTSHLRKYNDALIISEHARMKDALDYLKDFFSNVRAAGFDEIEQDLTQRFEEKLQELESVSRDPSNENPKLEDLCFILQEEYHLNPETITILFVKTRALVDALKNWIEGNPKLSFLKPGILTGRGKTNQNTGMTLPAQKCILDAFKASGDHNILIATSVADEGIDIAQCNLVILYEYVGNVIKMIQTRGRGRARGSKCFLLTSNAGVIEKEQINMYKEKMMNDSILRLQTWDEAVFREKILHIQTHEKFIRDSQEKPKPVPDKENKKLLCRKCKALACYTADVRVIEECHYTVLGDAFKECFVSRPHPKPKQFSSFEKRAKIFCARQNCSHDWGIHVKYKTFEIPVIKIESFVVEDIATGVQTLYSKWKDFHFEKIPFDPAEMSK
As to the kind of experiment: pulldown; one clone. Particulars: tags: FLAG, from 293T cells.

Series [2] concerns the target T1, Flag-RIG-I. As to the kind of experiment: pulldown; three clones. Conditions: tags: FLAG, from 293T cells.
The target of series [3] is T2, N-RIG (RIG-I N-terminal polypeptide) (UniProt O95786 O95786:1-228).
T2 sequence: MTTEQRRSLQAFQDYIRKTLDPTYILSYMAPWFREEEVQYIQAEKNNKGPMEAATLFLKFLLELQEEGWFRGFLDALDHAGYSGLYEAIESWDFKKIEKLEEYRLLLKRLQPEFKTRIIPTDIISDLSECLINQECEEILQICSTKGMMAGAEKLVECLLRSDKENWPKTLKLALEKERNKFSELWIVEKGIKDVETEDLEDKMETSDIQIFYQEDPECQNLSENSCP
As to the kind of experiment: EMSA; N-terminal polypeptide control. Conditions: broken stem-loop with 5' and 3' ss overhangs.

In series [4] the target is T3, RIG-I full-length (Homo sapiens, UniProt O95786 O95786:1-925).
T3 sequence: T1 sequence
The series is described as follows: EMSA; stable complex; 10 pmol protein, 6 pmol RNA, 20 mM Tris pH 8.0, 1.5 mM MgCl2, 37 C. Conditions: tags: recombinant full-length (Saito et al. 2007, 2008); broken stem-loop with 5' and 3' ss overhangs.

In series [5] the target is T1, Flag-RIG-I. As to the kind of experiment: pulldown; two clones. Particulars: tags: FLAG, from 293T cells.
Series [6] addresses T1, Flag-RIG-I. The series is described as follows: pulldown; eight clones. Conditions: tags: FLAG, from 293T cells; broken stem-loop with 5' and 3' ss overhangs.
Series [7] has as its target T3, RIG-I full-length. The series is described as follows: EMSA; stable complex; 1.5 mM MgCl2, 37 C. Particulars: tags: recombinant full-length (Saito et al. 2007, 2008); broken stem-loop with 5' and 3' ss overhangs.
Series [8] deals with T1, Flag-RIG-I. As to the kind of experiment: pulldown; six clones isolated; partial clones of the full fragment. Particulars: tags: FLAG, from 293T cells.

Results on 15 molecules are retold here after patent US20120251571, “RNASE L-MEDIATED CLEAVAGE PRODUCTS AND USES […]” (The Cleveland Clinic Foundation, published 2012).

B1: svRNA8 (ssRNA)
RNA: GCUUGGGCCAGCCGACGGAAUGGUCUCCAAGGGGUGGAGGUUGCUGGCGCCCAUCACGGCGUACGCCCAGCAGACGAGAGGCCUCCUAGGGUGUAUA
B1: the binding result with Flag-RIG-I [1] is listed as “binds”.

B2: svRNA9 (ssRNA)
RNA: B1 RNA
As for B2, the binding result with Flag-RIG-I [1] is on record as “binds”.

B3: svRNA2 (ssRNA)
RNA: UGUUGCUGCAACGCUGGGCUUUGGUGCUU
As for B3, in the series with Flag-RIG-I [2], the binding result was “binds”.

B4: svRNA3 (5'-p3/3'-OH) (ssRNA)
RNA: AAGAACAAAGCUCAAACUCACUCCAAUAGCGGCCGCUGGCCGGCUGGACUUGUCCGGUUGGUUCACGGCUGGCUACAGCGGGGGAGACAUUUA
modifications: 5'-triphosphate, 3'-OH
Turning to B4, the binding result is on record as “no binding” in series [3] and “binds” in the series with RIG-I full-length [4].

B5: svRNA11 (ssRNA)
RNA: ACAGACUGGGCGCUGUUCAGAAUGAAGUCACCCUGACGCACCCAAUCACCAAAUACAUCAUGACAUGCAUGUCGGCCGACCUGGAGAUCGUCACGAGCACCUGGGUGCUCGUUGGCGGCGUCCUGGCUGCUCUGGCCGCGUAUUGCCUGUCAACAGGCUGCGUGGUCAUAGUGGGCAGGAUU
In the case of B5, the binding result with Flag-RIG-I [1] is recorded as “binds”.

B6: svRNA6 (ssRNA)
RNA: ACGGGUCAUCGCAUGGCAUGGGAUAUGAUGAUGAACUGGUCCCCUACGGCAGCGUUGGUGGUAGCUCAGCUGCUCCGGAUCCCACAAGCCAUCAUGGACAUGAUCGCUGGUGCUCACUGGGGAGUCCUGGCGGGCAUAGCGU
In the case of B6, the binding result with Flag-RIG-I [5] was “binds”.

B7: svRNA14 (ssRNA)
RNA: CCCGUGACCCUACAACCCCCCUCGCGAGAGCCGCGUGGGAGACAGCAAGACACACUCCAGUCAAUUCCUGGCUAGGCAACAU
In the case of B7, the binding result with Flag-RIG-I [1] is listed as “binds”.

B8: svRNA15 (ssRNA)
RNA: B7 RNA
Consider B8, for which, in the series with Flag-RIG-I [5], the binding result is reported as “binds”.

B9: svRNA7 (ssRNA)
RNA: GGUCUCCUUACACCAGGCGCCAAGCAGAACAUCCAACUGAUCAACACCAACGGCAGUUGGCACAUCAAUAGCACGGCCUUGAAUUGCAAUGAAAGCCUUAACACCGGCUGGUUAGCAGGGCUCUUCUAUCAACACAAAUUCAACUCUUCAGGCUGUCCUGAGAGGUUGGCCAGCUGCCGACGCCUUACCGAUUUUGCCCAGGGCUGGGGUCCUA
For B9, the binding result in the series with Flag-RIG-I [5] is on record as “binds”.

B10: svRNA5 (ssRNA)
RNA: ACCUUCUCUCCCAGGCGCCACUGGACGACGCAAGACUGCAAU
B10: the binding result with Flag-RIG-I [1] is reported as “binds”.

B11: svRNA3 (5'-OH/3'-p) (ssRNA)
RNA: AAGAACAAAGCUCAAACUCACUCCAAUAGCGGCCGCUGGCCGGCUGGACUUGUCCGGUUGGUUCACGGCUGGCUACAGCGGGGGAGACAU
modifications: 5'-OH, 3'-phosphate
Regarding B11, the binding result in series [3] is “no binding”; with Flag-RIG-I [6] it was “binds”; in the series with RIG-I full-length [7], “binds”.

B12: svRNA1 (ssRNA)
RNA: UGUCCACCGGCCUCAUCCACCUCCACCAGAACAUU
In the case of B12, the binding result in the series with Flag-RIG-I [8] was “binds”.

B13: svRNA12 (ssRNA)
RNA: UGCACCGCCAACCAUGACUCCCCUGACGCCGAGCUCAUAGAGGCUAACCUCCUGUGGAGGCAGGAGAUGGGCGGCAACAUCACCAGGGUUGAGUCAGAGAACAAAGUGGUGAUUCUGGACUCCUUCGAUCCGCUUGUGGCAGAGGAGGAUGAGCGGGAGGUCUCCGUACCUGCAGAAAUUCUGCGGAAGUCUCGGAGAUUCGCCCGGGCCCUGCCCGUCUGGGCGCGGCCGGACUACAACCCCCCGCUA
For the molecule B13, the binding result with Flag-RIG-I [5] is reported as “binds”.

B14: svRNA10 (ssRNA)
RNA: ACCUGGUCACGAGGCACGCCGAUGUCAUUCCCGUGCGCCGGCGAGGUGAUAGCAGGGGUAGCCUGCUUUCGCCCCGGCCCAUUUCCUACUUGAAAGGCUCCUCGGGGGGUCCGCUGUUGUGCCCCGCGGGACACGCCGUGGGCCUAUUCAGGGCCGCGGUGUGCACCCGUGGAGUGGCU
In the case of B14, the binding result with Flag-RIG-I [1] is “binds”.

B15: svRNA13 (ssRNA)
RNA: CCACCUCCACGGUCCCCUCCUGUGCCUCCGCCUCGGAAAAAGCGUACGGUGGUCCUCACCGAAUCAACCCUA
As to B15, the binding result in the series with Flag-RIG-I [1] is “binds”.
